{"source": "patent US20060148030A1", "about": "“Nuclear receptor err y 3” (FUJISAWA PHARMACEUTICAL CO., LTD, priority 2002, published 2006)", "molecules": {"B1": {"name": "ERRγ3: novel ERRγ isoform, nuclear receptor protein of 396 amino acids (SEQ ID NO: 2) lacking part of the DNA binding domain (protein, listed as Homo sapiens)", "chain": "MSNKDRHIDSSCSSFIKTEPSSPASLTDSVNHHSPGGSSDASGSYSSTMNGHQNGLDSPPLYPSAPILGGSGPVRKLYDDCSSTIVEDPQTKCEYMLNSMPKRLCLVCGDIASGYHYGVASCEACKAFFKRTIQGVRLDRVRGGRQKYKRRIDAENSPYLNPQLAQPAKKPYNKIVSHLLVAEPEKIYAMPDPTVPDSDIKALTTLCDLADRELVVIIGWAKHIPGFSTLSLADQMSLLQSAWMEILILGVVYRSLSFEDELVYADDYIMDEDQSKLAGLLDLNNAILQLVKKYKSMKLEKEEFVTLKAIALANSDSMHIEDVEAVQKLQDVLHEALQDYEAGQHMEDPRRAGKMLMTLPLLRQTSTKAVQHFYNIKLEGKVPMHKLFLEMLEAKV"}}, "test_system": "ERE (estrogen response element)", "test": "Reporter gene assay of ERRγ3 alone, ERE luciferase reporter in CV-1 cells", "assay_type": "cell-based, African green monkey", "details": "ERRγ3 expression plasmid alone, FIG. 15", "method": "In order to construct a reporter gene assay system for evaluation of the transcription-controlling activity of ERRγ3, a reporter plasmid into which ERE (estrogen response element) was inserted was prepared along with expression plasmids for ERRγ3 and ERRγ2, as follows: A reporter gene assay was performed by transfecting the reporter plasmid and expression plasmids into cultured cells by lipofection, followed by incubating the cells for a certain time, treating the cells with cell lysis solution, and measuring reporter activity with a luminometer using a Dual luciferase assay. […]\nThe transcription-controlling activity of ERRγ3 was evaluated using a reporter gene assay. […]\nThe reporter gene assay was performed using CV-1 cells (African green monkey kidney-derived cell line) as hosts. […] They were then exposed to 4-hydroxytamoxifen at different concentrations (0, 10^−10 to −10^−5 M) for 24 hours, whereupon luciferase activity within the cells was measured.\nTransfection was performed as follows: CV-1 cells were suspended at 2×10^5 cells/2.5 ml in DMEM medium supplemented with 10% fetal bovine serum, 2000 U/l of penicillin G, and 100 mg/l streptomycin. […] 1 μg of each of the transcription factor expression plasmid, the luciferase reporter plasmid, and another luciferase reporter plasmid for normalizing the measured value (pRL-TK), were dissolved in Opti-MEM (Gibco BRL) to total of 150 μl. […]"}
{"molecule": "B1", "values": [{"measurement": "transcription-controlling activity of ERRγ3 by itself", "value": "does not comprise the transcription-controlling activity"}]}
